Measured values published in patent US20240124545A1, “COMPOSITIONS AND METHODS RELATING TO THE TREATMENT OF DISEASES” (ILC THERAPEUTICS LIMITED, priority 2021, published 2024).
Where “and” joins values, the source holds several entries; their conditions need not be identical. Identical values can stand only once. Like-named read-outs stand apart in the source and are kept apart here.

Tests used:
[1] = tested on: SK-OV-3 NucLight Red cells co-cultured with natural killer (NK) cells; experiment: Live cell imaging assay of immune cell killing (IncuCyte ZOOM); type: cell-based
Description: The effect of a hybrid recombinant interferon was tested in a live cell imaging assay of immune cell killing on an IncuCyte ZOOM platform. SK-OV-3 ovarian cancer cells with red labelled nuclei (SK-OV-3 NucLight Red) were used as target cells in the study. For immune cell killing, the cells were co-cultured with natural killer (NK) cells and positive controls consisted of cells treated with IL-2 and IL-12. Apoptosis was detected by staining caspase 3/7 positive objects while cell number was determined by counting of red nuclei. […] An initial optimisation experiment was carried out that tested 4 ratios of target and effector cells. […] Results were compared to no treatment controls, vehicle treated controls and IL-2/IL-12 treated cells. All conditions were tested using cells in co-culture (SK-OV-3 NucLight and NK cells) and mono-culture (SK-OV-3 NucLight Red). Cells were monitored for 4 days using an IncuCyte ZOOM, and IncuCyte software was used to measure green (apoptosis) and red (cell number) object count over time. Area under the curve (AUC) analysis was used to quantitate apoptosis and cell number over the time course.

[2] = tested on: HEp-2 cells
[3] = tested on: natural killer cells; experiment: NK cell monoculture model (cell clustering); type: cell-based
[4] = tested on: SARS-CoV-1; type: cell-based, SARS-HCoV2003VA2774; details: Vero E6 cells
[5] = tested on: HeLa-CD4-βgal cells
[6] = tested on: Herpes Simplex Virus Type 1 (HSV1); experiment: HSV1 infection of primary human keratinocytes; type: cell-based
[7] = tested on: IL-17A; experiment: Suppression of IL-17A synthesis; type: cell-based
[8] = tested on: SARS-CoV-1; type: cell-based
[9] = tested on: HIV-1 LAI; experiment: HIV-1 LAI infectivity assay with β-galactosidase readout (Experiment 5); type: cell-based, human immunodeficiency virus type 1 (HIV-1) LAI strain; details: for HIV-1 Infectivity in HeLa-CD4-βgal cells (% vehicle): mean of duplicates; for HIV Infectivity in HeLa CD4 βgal cells (β-galactosidase units): individual values
[10] = tested on: HRSV Long strain; experiment: HRSV infectivity assay, immunostaining readout in HEp-2 cells; type: cell-based, human respiratory syncytial virus (HRSV) Long strain; details: for HRSV Infectivity in HEp-2 cells (% vehicle): 72 hours, average of duplicates; for HRSV Infectivity in HEp-2 cells - Raw OD- Absorbance (490 nm): duplicate A490 values
[11] = tested on: HIV-1 LAI; details: for HIV Infectivity in HeLa-CD4-βgal cells (% vehicle): 48 hours
[12] = tested on: human RSV; experiment: Plaque assay with human RSV (FIG. 9); type: cell-based
[13] = tested on: IL 17F; experiment: Suppression of IL-17F; type: cell-based; details: listed as Hybrid 2
[14] = tested on: HeLa-CD4-βgal cells; remark: listed apart in the source

B1: Sample B: recombinant IFN-α10-IFN-α14 hybrid interferon alpha, amino acid sequence SEQ ID NO:3; sample B in Experiments 4 and 5 (protein)
chain: CDLPQTHSLGNRRALILLGQMGRISPFSCLKDRHDFRIPQEEFDGNQFQKAQAISVLHEMMQQTFNLFSTKNSSAAWDETLLEKFYIELFQQMNDLEACVIQEVGVEETPLMNEDSILAVKKYFQRITLYLIERKYSPCAWEVVRAEIMRSLSFSTNLQKRLRRKD
IC50 for the reduction in cell number [1]: 1.3×10^6 IU/ml
apoptosis response of cells in mono-culture ([1]; SK-OV-3 NucLight Red mono-culture): only a marginal response
EC50 for apoptosis induction ([1]; co-culture model): 1.5×10^6 IU/ml
AUC of apoptosis (caspase 3/7 positive object count over time) ([1]; co-culture model, top dose (3×10^6 IU/ml), 4 days, vehicle controls 200): 1174
AUC values for cell number (red nuclei count over time) ([1]; top dose, vehicle controls 39921): 19501
CC50, Cytotoxicity Assay (Hep-2 cells) [2]: >10000 ng/mL
direct activation of natural killer cells (cell clustering) [3]: very strong direct activation of natural killer cells
inhibition of the cytopathic effect following SARS-CoV-1 infection [4]: inhibit the cytopathic effect
CC50, Cytotoxicity Assay (HeLa-CD4-βgal cells) [5]: >10000 ng/mL
effect on HSV1 infection [6]: reduces Herpes Simplex Virus Type 1 (HSV1) infection
suppression of IL-17A synthesis ([7]; listed as HYBRID 2): suppression of IL-17A synthesis
suppression of IL-17A synthesis ([7]; listed as Hybrid 2): inhibits both 17 A and F very strongly
inhibition of plaque formation following SARS-CoV-1 infection [8]: inhibit the cytopathic effect and plaque formation
HIV-1 Infectivity in HeLa-CD4-βgal cells (% vehicle) ([9]; 0.0001 ng/mL, 48 hours): 102.4 % vehicle
HIV Infectivity in HeLa CD4 βgal cells (β-galactosidase units) ([9]; 0.0001 ng/mL): 971,384 RLU and 1,112,752 RLU
HIV-1 Infectivity in HeLa-CD4-βgal cells (% vehicle) ([9]; 0.001 ng/mL, 48 hours): 96.3 % vehicle
HIV Infectivity in HeLa CD4 βgal cells (β-galactosidase units) ([9]; 0.001 ng/mL): 1,062,736 RLU and 896,209 RLU
HIV-1 Infectivity in HeLa-CD4-βgal cells (% vehicle) ([9]; 0.01 ng/mL, 48 hours): 77.7 % vehicle
HIV Infectivity in HeLa CD4 βgal cells (β-galactosidase units) ([9]; 0.01 ng/mL): 761,455 RLU and 820,758 RLU
HIV-1 Infectivity in HeLa-CD4-βgal cells (% vehicle) ([9]; 0.1 ng/mL, 48 hours): 58.0 % vehicle
HIV Infectivity in HeLa CD4 βgal cells (β-galactosidase units) ([9]; 0.1 ng/mL): 588,618 RLU and 595,007 RLU
HIV-1 Infectivity in HeLa-CD4-βgal cells (% vehicle) ([9]; 1 ng/mL, 48 hours): 36.0 % vehicle
HIV Infectivity in HeLa CD4 βgal cells (β-galactosidase units) ([9]; 1.0 ng/mL): 343,482 RLU and 394,833 RLU
HIV-1 Infectivity in HeLa-CD4-βgal cells (% vehicle) ([9]; 10 ng/mL, 48 hours): 30.2 % vehicle
HIV Infectivity in HeLa CD4 βgal cells (β-galactosidase units) ([9]; 10 ng/mL): 302,405 RLU and 317,823 RLU
HIV-1 Infectivity in HeLa-CD4-βgal cells (% vehicle) ([9]; 100 ng/mL, 48 hours): 28.9 % vehicle
HIV Infectivity in HeLa CD4 βgal cells (β-galactosidase units) ([9]; 100 ng/mL): 278,916 RLU and 314,495 RLU
HIV-1 Infectivity in HeLa-CD4-βgal cells (% vehicle) ([9]; 1,000 ng/mL, 48 hours): 30.7 % vehicle
HIV Infectivity in HeLa CD4 βgal cells (β-galactosidase units) ([9]; 1,000 ng/mL): 299,975 RLU and 330,705 RLU
HIV-1 Infectivity in HeLa-CD4-βgal cells (% vehicle) ([9]; 10,000 ng/mL, 48 hours): 31.5 % vehicle
HIV Infectivity in HeLa CD4 βgal cells (β-galactosidase units) ([9]; 10,000 ng/mL): 300,821 RLU and 344,654 RLU
IC50 (infectivity), HIV-1 Antiviral Assay (HeLa-CD4-Bgal cells) ([9]; HIV-1 LAI, 48 hours): 0.03 ng/mL
infection signal still observed ([9]; highest concentrations tested (10 μg/mL)): about 25%
HRSV Infectivity in HEp-2 cells (% vehicle) ([10]; 0.001 ng/mL): 91.5 % vehicle
HRSV Infectivity in HEp-2 cells - Raw OD- Absorbance (490 nm) ([10]; 0.001 ng/mL): 0.647 and 0.675
HRSV Infectivity in HEp-2 cells (% vehicle) ([10]; 0.01 ng/mL): 71.3 % vehicle
HRSV Infectivity in HEp-2 cells - Raw OD- Absorbance (490 nm) ([10]; 0.01 ng/mL): 0.550 and 0.573
HRSV Infectivity in HEp-2 cells (% vehicle) ([10]; 0.1 ng/mL): 27.6 % vehicle
HRSV Infectivity in HEp-2 cells - Raw OD- Absorbance (490 nm) ([10]; 0.1 ng/mL): 0.353 and 0.338
HRSV Infectivity in HEp-2 cells (% vehicle) ([10]; 1.0 ng/mL): 9.7 % vehicle
HRSV Infectivity in HEp-2 cells - Raw OD- Absorbance (490 nm) ([10]; 1.0 ng/mL): 0.244 and 0.270
HRSV Infectivity in HEp-2 cells (% vehicle) ([10]; 10 ng/mL): 12.3 % vehicle
HRSV Infectivity in HEp-2 cells - Raw OD- Absorbance (490 nm) ([10]; 10 ng/mL): 0.248 and 0.292
HRSV Infectivity in HEp-2 cells (% vehicle) ([10]; 100 ng/mL): 11.9 % vehicle
HRSV Infectivity in HEp-2 cells - Raw OD- Absorbance (490 nm) ([10]; 100 ng/mL): 0.283 and 0.253
HRSV Infectivity in HEp-2 cells (% vehicle) ([10]; 1,000 ng/mL): 9.6 % vehicle
HRSV Infectivity in HEp-2 cells - Raw OD- Absorbance (490 nm) ([10]; 1,000 ng/mL): 0.262 and 0.251
HRSV Infectivity in HEp-2 cells (% vehicle) ([10]; 10,000 ng/mL): 6.6 % vehicle
HRSV Infectivity in HEp-2 cells - Raw OD- Absorbance (490 nm) ([10]; 10,000 ng/mL): 0.252 and 0.230
IC50 (infectivity), HRSV Antiviral Assay ([10]; HRSV Long, Hep-2 cells, 3 days): 0.03 ng/mL and 0.027 ng/mL
IC50 (infectivity), HIV-1 Antiviral Assay [11]: 0.009 ng/mL
HIV Infectivity in HeLa CD4 βgal cells (β-galactosidase units) ([11]; 0.0001 ng/mL): 1,159,421 RLU and 1,143,347 RLU
HIV Infectivity in HeLa-CD4-βgal cells (% vehicle) ([11]; 0.0001 ng/mL): 101.4 % vehicle
HIV Infectivity in HeLa-CD4-βgal cells (% vehicle) ([11]; 0.001 ng/mL): 91.9 % vehicle
HIV Infectivity in HeLa CD4 βgal cells (β-galactosidase units) ([11]; 0.01 ng/mL): 729,428 RLU and 754,356 RLU
HIV Infectivity in HeLa-CD4-βgal cells (% vehicle) ([11]; 0.01 ng/mL): 65.2 % vehicle
HIV Infectivity in HeLa CD4 βgal cells (β-galactosidase units) ([11]; 0.1 ng/mL): 505,696 RLU and 431,727 RLU
HIV Infectivity in HeLa-CD4-βgal cells (% vehicle) ([11]; 0.1 ng/mL): 41.1 % vehicle
HIV Infectivity in HeLa CD4 βgal cells (β-galactosidase units) ([11]; 1.0 ng/mL): 338,683 RLU and 353,822 RLU
HIV Infectivity in HeLa-CD4-βgal cells (% vehicle) ([11]; 1.0 ng/mL): 30.3 % vehicle
HIV Infectivity in HeLa CD4 βgal cells (β-galactosidase units) ([11]; 10 ng/mL): 292,575 RLU and 343,225 RLU
HIV Infectivity in HeLa-CD4-βgal cells (% vehicle) ([11]; 10 ng/mL): 27.8 % vehicle
HIV Infectivity in HeLa CD4 βgal cells (β-galactosidase units) ([11]; 100 ng/mL): 289,671 RLU and 320,902 RLU
HIV Infectivity in HeLa-CD4-βgal cells (% vehicle) ([11]; 100 ng/mL): 26.7 % vehicle
HIV Infectivity in HeLa CD4 βgal cells (β-galactosidase units) ([11]; 1,000 ng/mL): 340,382 RLU and 330,715 RLU
HIV Infectivity in HeLa-CD4-βgal cells (% vehicle) ([11]; 1,000 ng/mL): 29.4 % vehicle
HIV Infectivity in HeLa CD4 βgal cells (β-galactosidase units) ([11]; 10,000 ng/mL): 363,841 RLU and 344,014 RLU
HIV Infectivity in HeLa-CD4-βgal cells (% vehicle) ([11]; 10,000 ng/mL): 31.0 % vehicle
inhibition of a plaque assay with human RSV [12]: inhibition of a plaque assay with human RSV
suppression of IL 17F [13]: inhibits both 17 A and F very strongly
CC50, Cytotoxicity Assay (uninfected HeLa-CD4-Bgal cells) [14]: >10000 ng/mL
